Experimental data published in the supplement of paper PMC9732359.
± gives the uncertainty stated by the source.

Test: protein stability index of a GFP-peptide fusion (yeast GPS) (PSI 1-4); higher = more stable; sorted into four equal gates, so the index is relative within each strain
How it was run: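 Each library plasmid carries Cherry plus GFP with a tiled 17-residue yeast protein peptide fused downstream, and the pooled library was carried in yeast. Mid-log cultures in leucine-free medium were sorted into four equal gates by GFP/Cherry ratio. Reads from Illumina sequencing of PCR-amplified plasmids from each gate were assigned to strains by barcodes. Per peptide, the protein stability index was computed as the summed products of gate read frequency and gate number.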

Sequence | protein stability index (doa10∆) | protein stability index (pdr5∆) | protein stability index (san1∆) | protein stability index (ubr1∆)
KTTITRVEPETFEIPQA [SWI3] | 2.38 ± 0.066 | 2.81 ± 0.081 | 2.84 ± 0.072 | 2.38 ± 0.054
ALLRPGRLDRKVEIPLP [RPT4] | 2.99 ± 0.28 | – | – | –
EGHLAEIRAKEYKTSSD [SRB2] | 3.22 ± 0.11 | 3.29 ± 0.081 | 3.18 ± 0.051 | 3.26 ± 0.078
VENWIIDDKGVLMERKD [ITC1] | 1.69 ± 0.099 | 2.98 ± 0.18 | 3.09 ± 0.15 | 2.7 ± 0.1
LKNVEETQEIKENDTVM [ESC2] | 2.86 ± 0.097 | 3 ± 0.075 | 2.92 ± 0.14 | 3.16 ± 0.074
GEVLGITRFGLSKMRDS [RPO31] | 3.56 ± 0.12 | 3.26 ± 0.11 | 3.19 ± 0.075 | 3.46 ± 0.1
EWKSNHKKKRSNAAGAD [SRB8] | 1.33 ± 0.13 | 1.72 ± 0.2 | 1.5 ± 0.17 | 1.83 ± 0.054
IPYAAKLLFQELLSMNI [RET1] | 1.55 ± 0.1 | 1.46 ± 0.084 | 1.31 ± 0.16 | 1.35 ± 0.056
DSVATVIEVIETKWDDA [YJR042W/NUP85] | 2.32 ± 0.24 | 2.64 ± 0.28 | 2.16 ± 0.17 | 2.1 ± 0.27
KNDSLEKTINDLQRTQT [YIL149C/MLP2] | 2.97 ± 0.074 | 3.02 ± 0.063 | 2.82 ± 0.059 | 2.89 ± 0.046
QLDSDANKLSKSHSTVS [ISW2] | 3.04 ± 0.063 | 2.85 ± 0.075 | 3 ± 0.13 | 3.06 ± 0.074
STLQHFQETLDSTVVYP [MED8] | 2.99 ± 0.068 | 3.11 ± 0.055 | 2.96 ± 0.055 | 3.17 ± 0.041
LEHLHSTAFQNTPLSLP [COR1] | 2.52 ± 0.039 | 2.66 ± 0.033 | 2.35 ± 0.035 | 2.65 ± 0.039
VIVLSNISHLLEIASSI [SWI1] | 2.35 ± 0.059 | 1.67 ± 0.063 | 2.07 ± 0.082 | 1.8 ± 0.041
LHLAVGKKWFEVSQFLI [NAS6] | 2.12 ± 0.076 | 1.63 ± 0.059 | 1.63 ± 0.091 | 1.51 ± 0.073
HGGSRYATKDGVAHLLN [QCR2] | 3.13 ± 0.094 | 2.82 ± 0.055 | 3.3 ± 0.1 | 3.09 ± 0.072
EEIVVVASADYESQTFS [PRP8] | 3.14 ± 0.069 | 3.5 ± 0.095 | 3.24 ± 0.054 | 3.3 ± 0.057
SKQIFTHPKDTFYITRE [ARP9] | 3.11 ± 0.065 | 3.09 ± 0.056 | 2.93 ± 0.038 | 3.23 ± 0.039
DVSVKMGNTKVHCRISC [RRP45] | 2.21 ± 0.14 | 2.28 ± 0.092 | 2.17 ± 0.061 | 2.09 ± 0.074
QQMQPPNSSANNNPLQQ [GAL11] | 3.02 ± 0.055 | 2.9 ± 0.05 | 2.89 ± 0.041 | 2.95 ± 0.048
YSLASVTLKGAKALESL [POP1] | 2.78 ± 0.049 | 2.83 ± 0.052 | 2.83 ± 0.045 | 2.77 ± 0.052
PGVDVSAEEQLRKIDML [SRB7] | 2.9 ± 0.084 | 2.61 ± 0.061 | 2.31 ± 0.072 | 2.67 ± 0.043
FLKHNGEEDAVDLLLEI [RPN1] | 3.23 ± 0.082 | 3.16 ± 0.12 | 3.24 ± 0.072 | 3.3 ± 0.05
FQSVQLNINNPNFLIMQ [SMC2] | 2.6 ± 0.06 | 2.62 ± 0.071 | 1.75 ± 0.062 | 2.1 ± 0.061
NSKPVELKPVSLDNKTL [YJL041W/NSP1] | 2.8 ± 0.055 | 2.75 ± 0.059 | 2.69 ± 0.076 | 2.58 ± 0.064
GMTKSNIYNFSPSERIE [BRR2] | 3.18 ± 0.082 | 3.38 ± 0.082 | 3.01 ± 0.19 | 2.96 ± 0.059
DFIGHNSNINTLTASPD [ASC1] | 2.83 ± 0.075 | 2.87 ± 0.052 | 2.87 ± 0.068 | 2.96 ± 0.039

Sequence | protein stability index (doa10∆) | protein stability index (pdr5∆) | protein stability index (san1∆) | protein stability index (ubr1∆)
VDVNNKFIALCEQQPSQ [SIN4] | 2.82 ± 0.051 | 2.96 ± 0.05 | 3.18 ± 0.052 | 3 ± 0.059
LSGLSADKPFTRLTAYQ [YML031W/NDC1] | 2.95 ± 0.058 | 3.14 ± 0.06 | 2.95 ± 0.058 | 2.97 ± 0.063
TTTMLQLFSTFDRLNGN [SSN2] | 3.08 ± 0.076 | 3.12 ± 0.073 | 3.28 ± 0.055 | 3.02 ± 0.041
EKLDVSRSSVCVKAIEA [YCG1] | 2.54 ± 0.065 | 2.16 ± 0.058 | 2.08 ± 0.079 | 2.11 ± 0.058
QKTVFDELCKLVTCEGS [SRP54] | 1.19 ± 0.1 | 1.48 ± 0.091 | 1.25 ± 0.18 | 1.14 ± 0.086
QLIKVAVHNGDRKHVAA [RPL9B] | 2.09 ± 0.054 | 2.48 ± 0.059 | 2.28 ± 0.061 | 2.65 ± 0.027
FITKHLPLLILENSSRS [NUT1] | 1.36 ± 0.098 | 1.41 ± 0.067 | 1.12 ± 0.2 | 1.14 ± 0.032
ETLGDILKRDFELVSDL [ECM29] | 3.27 ± 0.14 | 3.39 ± 0.17 | 2.95 ± 0.22 | 3.08 ± 0.17
SGKSNILDAICFVLGIA [SMC2] | 1.85 ± 0.07 | 1.86 ± 0.087 | 2.25 ± 0.11 | 1.82 ± 0.066
EVSMNSIFAMGLCGAGT [RPN1] | 1.68 ± 0.047 | 1.61 ± 0.058 | 1.49 ± 0.091 | 1.23 ± 0.052
LTFNSKNIQSKDSYINA [FAS2] | 2.84 ± 0.16 | 2.72 ± 0.076 | 2.73 ± 0.17 | 2.68 ± 0.12
RARGPMQVLTRQPVEGR [RPB2] | 2.88 ± 0.2 | 2.36 ± 0.21 | 2.79 ± 0.11 | 2.98 ± 0.24
NNNEDNENNNNSSEKNN [MED2] | 3.11 ± 0.052 | 3.37 ± 0.043 | 3.2 ± 0.039 | 3.15 ± 0.048
EDHVEDHRKRKKSKIQL [LIN1] | 3.17 ± 0.093 | 3.25 ± 0.082 | 3.12 ± 0.059 | 3.16 ± 0.052
VTKETVHPRKSYKMNSS [PRP8] | 3.03 ± 0.11 | 3.02 ± 0.086 | 2.96 ± 0.048 | 2.9 ± 0.065
GNIISSDKTIVPTSIQT [SIN4] | 2.42 ± 0.061 | 2.61 ± 0.054 | 2.1 ± 0.076 | 2.77 ± 0.051
FFLRDTLLWNKNDKLIK [SNF5] | 2.4 ± 0.062 | 2.04 ± 0.059 | 2.06 ± 0.067 | 2.42 ± 0.027
GEINKICMESLFLEPSW [PCI8] | 1.84 ± 0.12 | 1.89 ± 0.083 | 2.03 ± 0.12 | 1.99 ± 0.063
LPEILNVLCVNIKSNDF [ECM29] | 1.56 ± 0.046 | 1.58 ± 0.047 | 1.37 ± 0.088 | 1.58 ± 0.035
AAFEKRYRVDLLNTDHT [RPO21] | 3.11 ± 0.076 | 3 ± 0.059 | 2.89 ± 0.058 | 2.88 ± 0.077
LRSKLFQFKLLQSNSKL [SMC4] | 1.84 ± 0.056 | 1.79 ± 0.053 | 1.59 ± 0.079 | 2.23 ± 0.037
NNPANNTNNNNSTGHSS [SWI1] | 2.58 ± 0.036 | 2.15 ± 0.035 | 2.59 ± 0.034 | 2.12 ± 0.036
ASLHSKELTRIPGEEVE [MED4] | 2.97 ± 0.12 | 3.29 ± 0.18 | 3.03 ± 0.12 | –
RKEWFDIKAPSTFENRN [RPS1A] | 1.95 ± 0.093 | 2.46 ± 0.07 | 1.77 ± 0.098 | 3.02 ± 0.06
SILSFVDKELLEPGCSV [RPT2] | 2.75 ± 0.077 | 2.86 ± 0.071 | 2.3 ± 0.078 | 3.01 ± 0.066
IAAGTYGKVYKAKRQIN [SSN3] | 1.68 ± 0.061 | 2.03 ± 0.043 | 2.24 ± 0.068 | 2.29 ± 0.048
